Laboratory results: the supplement of paper PMC9732359
± gives the uncertainty stated by the source.

test: protein stability index of a GFP-peptide fusion (yeast GPS) (PSI 1-4); higher = more stable; sorted into four equal gates, so the index is relative within each strain; details: san1∆
In short: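 The protein stability index of a peptide was calculated by multiplying its read frequency in each gate by that gate's number and adding the products. The peptides were tiled 17-residue stretches of yeast proteins, fused downstream of GFP on a Cherry-expressing plasmid and carried in yeast as a pooled library. Mid-log cultures in leucine-free medium were sorted into four equal gates by GFP/Cherry ratio, and each gate's plasmids were PCR-amplified and Illumina-sequenced.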

First: NGASVPINLHPSKLVIT [RPL26A]
Second: NGAVGKREGKTRLLNIV [ISW2]
The protein stability index of the first is lower: 1.96 ± 0.067 for the first, 3.03 ± 0.051 for the second.

same assay, conditions: ubr1∆

Compared with MILKLVCQVTKFGLLLQ [ECM29], MIQKVMEYLKSSKSLDL [RPN5] is higher in protein stability index: 1.61 ± 0.063 for the first, 2.46 ± 0.05 for the second.

Going from MKDKEINIQKYNNNTIR [CSI1] to MKEDGLSFVDIVLSKAA [SIR4], the protein stability index falls from 2.52 ± 0.1 to 2.22 ± 0.053.

Compared with MKHLGRSEGNPVIGVFQ [FAS2], MKLKLMIVYYKDAISFI [YCS4] is lower in protein stability index: 3.01 ± 0.093 for the first, 1.73 ± 0.042 for the second.

Going from MKLVPSIPPATIETFNE [RPB5] to MKMDKSPTESYSDIGGL [RPT2], the protein stability index rises from 2.57 ± 0.049 to 3.05 ± 0.059.

Compared with MKPEVEQELAHILLTEL [FAS2], MKPSDNISTNTNIHEPQ [SSN2] is higher in protein stability index: 2.722 ± 0.024 for the first, 3.06 ± 0.052 for the second.

Going from MKVEIDSFSGAKIYPGR [RPL24A] to MKWDFAKDIKGYGTQKI [PRE4], the protein stability index falls from 3.22 ± 0.1 to 1.4 ± 0.048.

Compared with MKWSAIPFQTLYRSIES [YJL039C/NUP192], MKYIQTEQQIEVPEGVT [RPL9A] is higher in protein stability index: 1.91 ± 0.031 for the first, 2.77 ± 0.053 for the second.

First: MKYLAAYLLLNAAGNTP [RPP2A]
Second: MKYLAAYLLLVQGGNAA [RPP2B]
The protein stability index of the first is higher: 2.32 ± 0.036 for the first, 2 ± 0.065 for the second.

Going from MLASQANGGSTIISPHK [DSN1] to MLLGTDLCSLKPYVDRF [DIS3], the protein stability index falls from 3.28 ± 0.15 to 2.92 ± 0.052.

MLLLNDSVENSSNILED [SRB8] and MLMSKIGDVDGLIVNPV [POP5] are within error of each other in protein stability index: 2.38 ± 0.061 for the first, 2.42 ± 0.04 for the second.

First: MLSILEIFKKGYIKNNK [POP6]
Second: MLWNLAAKKAMYTLSAQ [ASC1]
The protein stability index of the first is higher: 3.08 ± 0.1 for the first, 2.18 ± 0.077 for the second.

First: MMENYQNISPVYSVDPL [PRP8]
Second: MMMQQQLKNVQLDSYLV [MED2]
The protein stability index of the first is lower: 1.74 ± 0.044 for the first, 2.17 ± 0.032 for the second.

MNGNTNANTVFAGSNNQ [YOR098C/NUP1] and MNGRSLTYAQQQLNKQR [SNF6] are within error of each other in protein stability index: 3.26 ± 0.085 for the first, 3.23 ± 0.15 for the second.

Going from MNKDQAEKYQERSLRQK [SNM1] to MPPKKSWRNITNLSGGE [SMC4], the protein stability index falls from 3.53 ± 0.093 to 2.96 ± 0.1.

First: MPPKQQLSKAAKAAAAL [RPS25A]
Second: MPQSGTGVSVEAVDDVF [RPN11]
The protein stability index of the first is lower: 1.83 ± 0.042 for the first, 3.19 ± 0.051 for the second.

Compared with MPRAPRTYSKTYSTPKR [RPS9A], MQANTNALRRNLLKDEG [SSN3] is higher in protein stability index: 2.62 ± 0.054 for the first, 3.2 ± 0.27 for the second.

Going from MQDPDGIDINTKIFNSV [YCG1] to MQRHVKVDGKVRTDTTY [RPS4A], the protein stability index rises from 2.89 ± 0.068 to 3.06 ± 0.063.

Going from MRILSNDITNLQLSKTP [SRB8] to MRSTSILTEHLGYPPIS [MTW1], the protein stability index rises from 2.8 ± 0.046 to 3.06 ± 0.091.

MSGAAAASAAGYDRHIT [SCL1] and MSHRKYEAPRHGHLGFL [RPL3] are the same in protein stability index: 2.94 ± 0.14 for the first, 2.94 ± 0.23 for the second.

First: MSLPATFDLTPEDAQLL [RPS0A]
Second: MSLSNKTVKELRQLLKE [RRI1]
The protein stability index of the first is higher: 2.31 ± 0.11 for the first, 1.85 ± 0.15 for the second.

Going from MSREGFQIPTNLDAAAA [RPC10] to MSRPQVTVHSLTGEATA [RPL4A], the protein stability index rises from 1.16 ± 0.2 to 2.07 ± 0.082.

Going from MSSAAEKKPASKAPAEK [HTB2] to MSSTTPKLESVKWQYDP [SNF12], the protein stability index rises from 2.91 ± 0.054 to 3.39 ± 0.062.

MSVQDTKAVEFSMGHIR [MED4] and MTLKEMYQMITMGGNAE [SMC4] are within error of each other in protein stability index: 2.9 ± 0.088 for the first, 2.77 ± 0.068 for the second.

Going from MTMLTPNYLHLVSSYLN [YML103C/NUP188] to MTMQVAVPRDELGRSNY [FAS1], the protein stability index rises from 1.4 ± 0.032 to 2.99 ± 0.092.

Going from MTTFRFCRDCNNMLYPR [RPB9] to MTTSAVSPTVGKLFSDI [YIL149C/MLP2], the protein stability index rises from 2.99 ± 0.068 to 3.16 ± 0.036.

Going from MTTWRKLYTKELSVTGS [YMR129W/POM152] to MVDESDKKQQTIDEQSQ [RPN1], the protein stability index rises from 1.14 ± 0.04 to 3.43 ± 0.12.

First: MVKNVKPSSPPDVKSLV [SIR4]
Second: MVLRKQKRYTVKKALAK [RPL14A]
The protein stability index of the first is higher: 3.13 ± 0.068 for the first, 1.55 ± 0.19 for the second.

Compared with MVLRNVMEYDVKFYEIF [SRB8], MVRLKSRYILFEIIFPP [POP5] is lower in protein stability index: 2.1 ± 0.067 for the first, 1.5 ± 0.047 for the second.

Going from MVTSNVVLVSGEGERFT [SKP1] to MYTRLCICSGMLFEMDG [SIN4], the protein stability index falls from 1.73 ± 0.081 to 1.42 ± 0.029.

NAAVAGVANTDTAGEES [SWI3] and NAEAKGLDATKLYVSHI [RPL17A] are within error of each other in protein stability index: 3.15 ± 0.056 for the first, 3.03 ± 0.071 for the second.

First: NAIIEANLGKYGILSID [RPL7A]
Second: NAKDIQIPVYDTFDGSD [FAS1]
The protein stability index of the first is higher: 2.89 ± 0.15 for the first, 2.29 ± 0.064 for the second.

First: NALEHKYFTESDIPVSE [SSN3]
Second: NANIFSSVKCFGPIKVE [FAS1]
The protein stability index of the first is higher: 2.94 ± 0.096 for the first, 1.51 ± 0.058 for the second.

Compared with NANRVFRTRFQDGTSVV [SMC2], NARKVVGASVVVVKNWG [RPS12] is higher in protein stability index: 2.34 ± 0.085 for the first, 2.67 ± 0.084 for the second.

First: NATHDEDEFIVQHDQIL [SWP82]
Second: NATVNLAMEAILNELEV [YJR042W/NUP85]
The protein stability index of the first is higher: 3.044 ± 0.023 for the first, 2.55 ± 0.11 for the second.

Compared with NAVSFDTTFSDFKEVED [SRB4], NCFFDVIVPQIVLDEVR [DIS3] is lower in protein stability index: 2.74 ± 0.039 for the first, 1.47 ± 0.12 for the second.

First: NDFTTKLINIKKFDISN [MED1]
Second: NDICSVENYETSSAFFY [SIR4]
The protein stability index of the first is lower: 2.28 ± 0.27 for the first, 2.77 ± 0.053 for the second.

Going from NDLEVGVATKDKFFTLS [SCL1] to NDLQSETKTKKEKIKGL [SMC4], the protein stability index rises from 2.89 ± 0.12 to 3.5 ± 0.12.

First: NDNEDDDEEYDYNDVEV [BRR2]
Second: NDNIGANRSRFNNEAPP [SMB1]
The protein stability index of the first is higher: 3.4 ± 0.052 for the first, 3.01 ± 0.067 for the second.

Compared with NDQALIKVLLRQNRRPE [RET1], NDRESVLTNIEVYRTSL [SMC3] is higher in protein stability index: 2.77 ± 0.059 for the first, 2.97 ± 0.081 for the second.

NDSFKGLITNKMWFDVQ [PRP8] and NDVTRRTVKNILVSVLP [CSL4] are within error of each other in protein stability index: 3.08 ± 0.087 for the first, 3.09 ± 0.11 for the second.

First: NEDDALIYGISDEERDD [AAR2]
Second: NEDMVRRANFYKENEAM [SNF12]
The protein stability index of the first is lower: 3.2 ± 0.12 for the first, 3.48 ± 0.1 for the second.

First: NEDSKAFHTAVLRLNAI [NUT1]
Second: NEGVPSPMLSISNLTQE [FAS1]
The protein stability index of the first is higher: 3.27 ± 0.051 for the first, 3.12 ± 0.059 for the second.

Compared with NEIEGKNEETPQNEKPP [RPC25], NEIKQLGSDSSDGHNSE [SRB4] is lower in protein stability index: 3.3 ± 0.078 for the first, 3 ± 0.09 for the second.

Compared with NEISRNGTMINEVIDKL [PCI8], NELMRWPIVQKTYEPVL [RPN5] is lower in protein stability index: 2.78 ± 0.065 for the first, 1.83 ± 0.037 for the second.

Going from NEQAARAANQGALPPDL [CYT1] to NERELNVFARLSRLLSL [RPC82], the protein stability index falls from 3.03 ± 0.042 to 2.5 ± 0.06.

NESEKDQWLEEYKKHFP [UBP6] and NETSEQLVPIRLEFDQD [SNF5] are within error of each other in protein stability index: 3.32 ± 0.11 for the first, 3.29 ± 0.07 for the second.

Going from NEYPVADAVTKDLKLRR [REC8] to NFGNNGAGGLNPFTSAT [YOR098C/NUP1], the protein stability index falls from 3.23 ± 0.041 to 3.04 ± 0.052.

First: NFKSYRGVTKVGFGESN [SMC1]
Second: NFNSVNDANITSNKEGF [SSN2]
The protein stability index of the first is lower: 2.72 ± 0.11 for the first, 3.12 ± 0.065 for the second.

First: NFPVRQWSIEIVLLDDE [TAF14]
Second: NGASVPINLHPSKLVIT [RPL26A]
The protein stability index of the first is higher: 2.19 ± 0.059 for the first, 1.41 ± 0.05 for the second.

NGAVGKREGKTRLLNIV [ISW2] gave a protein stability index of 2.97 ± 0.088.
